From patent publication US20260008815A1, “CYCLIC PEPTIDE OR SALT THEREOF, AND USES THEREOF” (FUJIFILM Corporation, priority 2023, published 2026)
Bridge positions count the residues as written; N and C are the ends. Ends that are not written are not given here. COCH2 = acetyl group that carries the bridge

Biological target: T1, Recombinant Human FGFR2 alpha (IIIc) Fc Chimera Protein, CF (R&D systems, 712-FR-050) (human, UniProt P21802 22-377)
T1 construct: bought; not shown: Fc part of the chimera
Test: ELISA on plate-bound FGFR2-Fc
Procedure, shortened: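 Peptide binding scored by category from dose-response of background-corrected luminescence (FGFR-coated minus uncoated wells). Detection via anti-Myc antibody (2 h, room temperature) after 3 h peptide incubation on wells coated with 5 ng FGFR2 alpha (IIIc)-Fc.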

T1 sequence (P21802 22-377, change not shown): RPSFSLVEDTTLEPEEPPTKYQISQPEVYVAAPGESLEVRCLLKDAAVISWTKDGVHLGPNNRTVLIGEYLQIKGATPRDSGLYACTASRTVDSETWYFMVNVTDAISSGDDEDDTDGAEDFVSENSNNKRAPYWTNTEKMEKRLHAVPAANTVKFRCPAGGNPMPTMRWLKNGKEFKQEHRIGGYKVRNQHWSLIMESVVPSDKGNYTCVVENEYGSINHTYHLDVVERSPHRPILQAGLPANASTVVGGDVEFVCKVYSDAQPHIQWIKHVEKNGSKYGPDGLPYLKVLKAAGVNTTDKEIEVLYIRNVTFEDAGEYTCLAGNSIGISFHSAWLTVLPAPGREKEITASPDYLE

Binder	ELISA luminescence signal at 10 nmol/L peptide, relative to SEQ ID NO: 47 (=1) [ratio]
YCEENYMDPEQYQYFIYFK(COCH2)Y (thioether 2-19) [cyclic peptide SEQ ID NO: 351]	≥ 0.7
YCEENYLMPEQYQYFIYFK(COCH2)Y (thioether 2-19) [cyclic peptide SEQ ID NO: 352]	≥ 0.7
YCEENYLDPEQYMYFIYFK(COCH2)Y (thioether 2-19) [cyclic peptide SEQ ID NO: 356]	≥ 0.7
YCEENYLDMEQYQYFIYFK(COCH2)Y (thioether 2-19) [cyclic peptide SEQ ID NO: 353]	≥ 0.7
YCEENYLDPEQYQMFIYFK(COCH2)Y (thioether 2-19) [cyclic peptide SEQ ID NO: 357]	0.1 to 0.5
YCEENYLDPMQYQYFIYFK(COCH2)Y (thioether 2-19) [cyclic peptide SEQ ID NO: 354]	≥ 0.7
YCEENYLDPEQMQYFIYFK(COCH2)Y (thioether 2-19) [cyclic peptide SEQ ID NO: 355]	0.1 to 0.5
ACEYNYWNQVQFTFLIAFK(COCH2)R (thioether 2-19 (inferred)) [cyclic peptide SEQ ID NO: 44]	0.5 to 0.7
QCPQNFINPVQWRYFQHYK(COCH2)N (thioether 2-19 (inferred)) [cyclic peptide SEQ ID NO: 80]	≥ 0.7
ACPQNFINPVQWRYFQHYK(COCH2)N (thioether 2-19 (inferred)) [cyclic peptide SEQ ID NO: 53]	≥ 0.7
KCPQNFIAPVQWRYFQHYKN (not fully specified; thioether ring (C)-(K(acetyl))) [cyclic peptide SEQ ID NO: 59]	0.5 to 0.7
KCPQAFINPVQWRYFQHYKN (thioether ring (C)-(K(acetyl))) [cyclic peptide SEQ ID NO: 56]	0.1 to 0.5
KCPQNFINAVQWRYFQHYKN (not fully specified; thioether ring (C)-(K(acetyl))) [cyclic peptide SEQ ID NO: 60]	≥ 0.7
KCPQNFINPVQWAYFQHYKN (not fully specified; thioether ring (C)-(K(acetyl))) [cyclic peptide SEQ ID NO: 63]	≥ 0.7
KCPQNFANPVQWRYFQHYKN (thioether ring (C)-(K(acetyl))) [cyclic peptide SEQ ID NO: 58]	0.5 to 0.7
KCPQNFINPVQWRYFQHYKN (thioether ring (C)-(K(acetyl))) [cyclic peptide SEQ ID NO: 47]	≥ 0.7
KCPQNFINPVQWRAFQHYKN (not fully specified; thioether ring (C)-(K(acetyl))) [cyclic peptide SEQ ID NO: 64]	0.5 to 0.7
KCPQNFINPVQWRYFAHYKN (not fully specified; thioether ring (C)-(K(acetyl))) [cyclic peptide SEQ ID NO: 65]	≥ 0.7
KCAQNFINPVQWRYFQHYKN (thioether ring (C)-(K(acetyl))) [cyclic peptide SEQ ID NO: 54]	≥ 0.7
KCPQNFINPVQARYFQHYKN (not fully specified; thioether ring (C)-(K(acetyl))) [cyclic peptide SEQ ID NO: 62]	0.1 to 0.5
KCPQNFINPAQWRYFQHYKN (not fully specified; thioether ring (C)-(K(acetyl))) [cyclic peptide SEQ ID NO: 61]	≥ 0.7
KCPQNAINPVQWRYFQHYKN (thioether ring (C)-(K(acetyl))) [cyclic peptide SEQ ID NO: 57]	0.5 to 0.7
KCPANFINPVQWRYFQHYKN (thioether ring (C)-(K(acetyl))) [cyclic peptide SEQ ID NO: 55]	≥ 0.7
TCPQNFRDELQFTYFTQYK(COCH2)Y (thioether 2-19 (inferred)) [cyclic peptide SEQ ID NO: 45]	≥ 0.7
SCIQQNYFWQYVFERYRYK(COCH2)Q (thioether 2-19 (inferred)) [cyclic peptide SEQ ID NO: 46]	0.5 to 0.7

Second part, the binder after the results:

ELISA luminescence signal at 10 nmol/L peptide, relative to SEQ ID NO: 47 (=1) [ratio]	Binder
≥ 0.7	YCEENYLDPEQYQYFMYFK(COCH2)Y (thioether 2-19) [cyclic peptide SEQ ID NO: 358]
0.5 to 0.7	YCHENYLDPEQYQYFHYFK(COCH2)R (thioether 2-19) [cyclic peptide SEQ ID NO: 394]
0.1 to 0.5	YCHENYLDPEQHQYFHYFK(COCH2)Y (thioether 2-19) [cyclic peptide SEQ ID NO: 393]
0.1 to 0.5	YCEENYLDPEQYQYFHYFK(COCH2)R (thioether 2-19) [cyclic peptide SEQ ID NO: 390]
≥ 0.7	YCHENYLDPEQYQYFHYFK(COCH2)H (thioether 2-19) [cyclic peptide SEQ ID NO: 395]
0.5 to 0.7	YCEENYLDPEQHQYFIYFK(COCH2)R (thioether 2-19) [cyclic peptide SEQ ID NO: 396]
≥ 0.7	YCEENYLDPEQHQYFIYFK(COCH2)H (thioether 2-19) [cyclic peptide SEQ ID NO: 397]
≥ 0.7	YCEENYLDPEQYQYFIMFK(COCH2)Y (thioether 2-19) [cyclic peptide SEQ ID NO: 359]
≥ 0.7	YCEENYLDPEQYQYFHYFK(COCH2)H (thioether 2-19) [cyclic peptide SEQ ID NO: 391]
≥ 0.7	YCHENYLDPEQYQYFHYFK(COCH2)Y (thioether 2-19) [cyclic peptide SEQ ID NO: 392]
≥ 0.7	YCEENYLDPEQYQYFIYFK(COCH2)M (thioether 2-19) [cyclic peptide SEQ ID NO: 360]
0.5 to 0.7	YCHENYLDPEQHQYFIYFK(COCH2)R (thioether 2-19) [cyclic peptide SEQ ID NO: 398]
